The source of these data is publication PMC12102759 (2025).

Sequences and labels used below:
B1: AXIN1 peptide 237-252 (Axin-1), 16-mer library wild type / PP2A B56 (PPP2R5A B56 domain, residues 1-486) (parent complex)
chain 1: YLPTLNEDEEWKADQD
chain 2: not shown

This experiment covers variants of B1. Nature of the experiment: proteomic peptide phage display deep mutational scan (ProP-PD DMS): M13 P8 16-mer library selected against immobilised GST-tagged bait for four days (rounds), NGS of the eluted pools per day and pseudo-replica; bait immobilised on MaxiSorp plates (10 µg), library pre-cleared on GST, 2 h binding at 4 °C, five washes; one round per day, days 1-4; value from days 2 and 3.
As for chain 1 E10Q, the screen value was 0.000224 average fractional NGS count over selection days 2 and 3 (reads of this peptide / all reads for the bait, averaged over ….
Take chain 1 E10H: the screen value was 0.000923 average fractional NGS count over selection days 2 and 3 (reads of this peptide / all reads for the bait, averaged over ….
The figure for chain 1 E10R is 0.000173 average fractional NGS count over selection days 2 and 3 (reads of this peptide / all reads for the bait, averaged over ….
As for chain 1 E10F, the screen value is 0.000572 average fractional NGS count over selection days 2 and 3 (reads of this peptide / all reads for the bait, averaged over ….
Regarding chain 1 E10L, the screen value is 0.00181 average fractional NGS count over selection days 2 and 3 (reads of this peptide / all reads for the bait, averaged over ….
Take chain 1 E10S: the screen value is 0.000255 average fractional NGS count over selection days 2 and 3 (reads of this peptide / all reads for the bait, averaged over ….
In the case of chain 1 E10G, the screen value was 0.00014 average fractional NGS count over selection days 2 and 3 (reads of this peptide / all reads for the bait, averaged over ….
chain 1 E10I: the screen value is 0.0037 average fractional NGS count over selection days 2 and 3 (reads of this peptide / all reads for the bait, averaged over ….
Turning to chain 1 N6D, the screen value was 0.00102 average fractional NGS count over selection days 2 and 3 (reads of this peptide / all reads for the bait, averaged over ….
Turning to chain 1 N6K, the screen value was 0.0012 average fractional NGS count over selection days 2 and 3 (reads of this peptide / all reads for the bait, averaged over ….
As to chain 1 N6H, the screen value is 0.0272 average fractional NGS count over selection days 2 and 3 (reads of this peptide / all reads for the bait, averaged over ….
For chain 1 N6R, the screen value was 0.000965 average fractional NGS count over selection days 2 and 3 (reads of this peptide / all reads for the bait, averaged over ….
Take chain 1 N6V: the screen value is 0.00339 average fractional NGS count over selection days 2 and 3 (reads of this peptide / all reads for the bait, averaged over ….
Consider chain 1 A13T, for which the screen value is 0.000184 average fractional NGS count over selection days 2 and 3 (reads of this peptide / all reads for the bait, averaged over ….
The figure for chain 1 A13W is 0.00128 average fractional NGS count over selection days 2 and 3 (reads of this peptide / all reads for the bait, averaged over …; for chain 1 A13Q it is 0.000245 average fractional NGS count over selection days 2 and 3 (reads of this peptide / all reads for the bait, averaged over …; for chain 1 A13M it is 0.000333 average fractional NGS count over selection days 2 and 3 (reads of this peptide / all reads for the bait, averaged over ….
Consider chain 1 A13H, for which the screen value was 0.00442 average fractional NGS count over selection days 2 and 3 (reads of this peptide / all reads for the bait, averaged over ….
chain 1 A13I: the screen value was 0.00149 average fractional NGS count over selection days 2 and 3 (reads of this peptide / all reads for the bait, averaged over ….
As to chain 1 A13G, the screen value was 0.000231 average fractional NGS count over selection days 2 and 3 (reads of this peptide / all reads for the bait, averaged over ….
For the variant chain 1 A13F, the screen value is 0.000843 average fractional NGS count over selection days 2 and 3 (reads of this peptide / all reads for the bait, averaged over ….
For the variant chain 1 A13Y, the screen value was 0.00559 average fractional NGS count over selection days 2 and 3 (reads of this peptide / all reads for the bait, averaged over ….
For the variant chain 1 A13S, the screen value was 0.0021 average fractional NGS count over selection days 2 and 3 (reads of this peptide / all reads for the bait, averaged over ….
chain 1 K12G: the screen value is 0.00482 average fractional NGS count over selection days 2 and 3 (reads of this peptide / all reads for the bait, averaged over ….
On to chain 1 K12M, for which the screen value is 0.000504 average fractional NGS count over selection days 2 and 3 (reads of this peptide / all reads for the bait, averaged over ….
Take chain 1 K12T: the screen value is 0.00858 average fractional NGS count over selection days 2 and 3 (reads of this peptide / all reads for the bait, averaged over ….
Take chain 1 K12I: the screen value is 0.00212 average fractional NGS count over selection days 2 and 3 (reads of this peptide / all reads for the bait, averaged over ….
Consider chain 1 K12P, for which the screen value was 0.00867 average fractional NGS count over selection days 2 and 3 (reads of this peptide / all reads for the bait, averaged over ….
For chain 1 K12W the value was 0.0129 average fractional NGS count over selection days 2 and 3 (reads of this peptide / all reads for the bait, averaged over …; for chain 1 K12A, 0.00844 average fractional NGS count over selection days 2 and 3 (reads of this peptide / all reads for the bait, averaged over …; for chain 1 K12L, 0.00105 average fractional NGS count over selection days 2 and 3 (reads of this peptide / all reads for the bait, averaged over ….
For chain 1 K12F the value was 0.00191 average fractional NGS count over selection days 2 and 3 (reads of this peptide / all reads for the bait, averaged over …; for chain 1 K12E, 0.000936 average fractional NGS count over selection days 2 and 3 (reads of this peptide / all reads for the bait, averaged over ….
For chain 1 K12D the value was 0.000722 average fractional NGS count over selection days 2 and 3 (reads of this peptide / all reads for the bait, averaged over …; for chain 1 K12S, 0.0233 average fractional NGS count over selection days 2 and 3 (reads of this peptide / all reads for the bait, averaged over …; for chain 1 Q15D, 0.000993 average fractional NGS count over selection days 2 and 3 (reads of this peptide / all reads for the bait, averaged over ….
chain 1 Q15F: the screen value is 0.00274 average fractional NGS count over selection days 2 and 3 (reads of this peptide / all reads for the bait, averaged over ….
As for chain 1 Q15Y, the screen value is 0.00911 average fractional NGS count over selection days 2 and 3 (reads of this peptide / all reads for the bait, averaged over ….
As for chain 1 Q15M, the screen value was 0.00211 average fractional NGS count over selection days 2 and 3 (reads of this peptide / all reads for the bait, averaged over ….
Turning to chain 1 Q15W, the screen value is 0.00273 average fractional NGS count over selection days 2 and 3 (reads of this peptide / all reads for the bait, averaged over ….
The figure for chain 1 Q15I is 0.00307 average fractional NGS count over selection days 2 and 3 (reads of this peptide / all reads for the bait, averaged over …; for chain 1 Q15H it is 0.0369 average fractional NGS count over selection days 2 and 3 (reads of this peptide / all reads for the bait, averaged over …; for chain 1 Q15R it is 0.000634 average fractional NGS count over selection days 2 and 3 (reads of this peptide / all reads for the bait, averaged over ….
On to chain 1 Q15E, for which the screen value is 0.00341 average fractional NGS count over selection days 2 and 3 (reads of this peptide / all reads for the bait, averaged over ….
For chain 1 Q15K, the screen value was 0.000314 average fractional NGS count over selection days 2 and 3 (reads of this peptide / all reads for the bait, averaged over ….
For chain 1 Q15L, the screen value is 0.00865 average fractional NGS count over selection days 2 and 3 (reads of this peptide / all reads for the bait, averaged over ….
Consider chain 1 E9Y, for which the screen value is 0.0102 average fractional NGS count over selection days 2 and 3 (reads of this peptide / all reads for the bait, averaged over ….
As to chain 1 E9K, the screen value is 0.00203 average fractional NGS count over selection days 2 and 3 (reads of this peptide / all reads for the bait, averaged over ….
With chain 1 E9D, the screen value was 0.000572 average fractional NGS count over selection days 2 and 3 (reads of this peptide / all reads for the bait, averaged over ….
Take chain 1 E9F: the screen value is 0.00128 average fractional NGS count over selection days 2 and 3 (reads of this peptide / all reads for the bait, averaged over ….
For chain 1 E9L the value was 0.000568 average fractional NGS count over selection days 2 and 3 (reads of this peptide / all reads for the bait, averaged over …; for chain 1 E9A, 0.00203 average fractional NGS count over selection days 2 and 3 (reads of this peptide / all reads for the bait, averaged over ….
For chain 1 E9H the value was 0.000956 average fractional NGS count over selection days 2 and 3 (reads of this peptide / all reads for the bait, averaged over …; for chain 1 E9W, 0.00436 average fractional NGS count over selection days 2 and 3 (reads of this peptide / all reads for the bait, averaged over …; for chain 1 E9M, 0.00292 average fractional NGS count over selection days 2 and 3 (reads of this peptide / all reads for the bait, averaged over ….
Turning to chain 1 E9G, the screen value is 0.000581 average fractional NGS count over selection days 2 and 3 (reads of this peptide / all reads for the bait, averaged over ….
chain 1 E9N: the screen value is 0.000581 average fractional NGS count over selection days 2 and 3 (reads of this peptide / all reads for the bait, averaged over ….
For chain 1 T4M the value was 0.000565 average fractional NGS count over selection days 2 and 3 (reads of this peptide / all reads for the bait, averaged over …; for chain 1 T4V, 0.000271 average fractional NGS count over selection days 2 and 3 (reads of this peptide / all reads for the bait, averaged over …; for chain 1 T4S, 0.000737 average fractional NGS count over selection days 2 and 3 (reads of this peptide / all reads for the bait, averaged over ….
With chain 1 T4Y, the screen value was 0.00014 average fractional NGS count over selection days 2 and 3 (reads of this peptide / all reads for the bait, averaged over ….
The figure for chain 1 D8N is 0.000367 average fractional NGS count over selection days 2 and 3 (reads of this peptide / all reads for the bait, averaged over …; for chain 1 D8A it is 0.000509 average fractional NGS count over selection days 2 and 3 (reads of this peptide / all reads for the bait, averaged over …; for chain 1 D8L it is 0.00362 average fractional NGS count over selection days 2 and 3 (reads of this peptide / all reads for the bait, averaged over ….
The figure for chain 1 D8W is 0.000322 average fractional NGS count over selection days 2 and 3 (reads of this peptide / all reads for the bait, averaged over …; for chain 1 D8T it is 0.000632 average fractional NGS count over selection days 2 and 3 (reads of this peptide / all reads for the bait, averaged over …; for chain 1 D8S it is 0.0116 average fractional NGS count over selection days 2 and 3 (reads of this peptide / all reads for the bait, averaged over ….
Turning to chain 1 D8M, the screen value is 0.000462 average fractional NGS count over selection days 2 and 3 (reads of this peptide / all reads for the bait, averaged over ….
On to chain 1 D8V, for which the screen value is 0.000175 average fractional NGS count over selection days 2 and 3 (reads of this peptide / all reads for the bait, averaged over ….
